T1: TACI (Homo sapiens, UniProt O14836)
T1 construct: expressed in transfected cells
T1 sequence (O14836 1-293): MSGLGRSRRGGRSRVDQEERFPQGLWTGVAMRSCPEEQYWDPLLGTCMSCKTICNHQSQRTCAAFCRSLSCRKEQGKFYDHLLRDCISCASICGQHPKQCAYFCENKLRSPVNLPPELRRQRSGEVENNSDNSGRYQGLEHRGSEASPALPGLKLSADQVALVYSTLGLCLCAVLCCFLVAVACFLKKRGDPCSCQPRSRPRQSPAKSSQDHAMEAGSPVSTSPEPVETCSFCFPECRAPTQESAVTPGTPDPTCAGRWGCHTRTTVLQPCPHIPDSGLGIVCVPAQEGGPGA

T2: human BCMA (Homo sapiens, UniProt Q02223, N81S)
T2 construct: expressed in transfected cells
T2 sequence (Q02223 1-184 N81S): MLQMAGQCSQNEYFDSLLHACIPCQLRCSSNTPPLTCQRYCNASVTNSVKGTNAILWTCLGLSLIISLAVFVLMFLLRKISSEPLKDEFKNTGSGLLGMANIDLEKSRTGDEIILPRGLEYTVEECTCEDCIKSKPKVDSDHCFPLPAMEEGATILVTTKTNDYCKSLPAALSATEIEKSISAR

B1: Ab-8: anti-huBCMA mAb of the second campaign, Vh SEQ ID NO:220, Vl SEQ ID NO:254 (antibody, V domains shown)
VH: EVQLLESGGALVQPGGSLRLSCAASGFTFSSYAMNWVRQAPGKGLEWVSAISVGGDTYYADSVKGRFTISRDNSKNTLYLQMNSLRAEDTAVYYCAKDQVTMVRGVWYYYGLDVWGQGTTVTVSS
VL: DIVMIQSPLSLPVTPGEPASISCRSSQSLLHSNGNNYLDWYLQKPGQSPHLLISLGSNRTSGVPDRFSGSGSGTDFTLKISRVEAEDVGVYYCMQALQPPRRFGQGTKLEIKR
B2: Ab-6: anti-huBCMA mAb, Vh SEQ ID NO:216, Vl SEQ ID NO:250 (antibody, V domains shown)
VH: QVQLVESGGGVVQPGRSLRLSCAASGFTFSSYGLHWVRQAPGKGLEWVALISYDGSNKYYADSVKGRFTISRDNSKNTLYLQMNSLRAEDTAVYYCWYSSSWTPLDYWGQGTLVTVSS
VL: DIQMTQSPSSLSASVGDRVTITCRASQGIRNDLGWYQQKPGKAPKRLIYAASSLQSGVPSRFSGSGSGTEFTLTISSLQPEDFATYYCLQYYSYPLTFGGGTKVEIKR

What was measured:
[1] = target: T3, Sumo (cleaved from SumoBCMA) (Saccharomyces cerevisiae, UniProt Q12306); experiment: Size exclusion chromatography control with Sumo; type: binding; conditions: SEC control
T3 construct: 6xHis (N)
T3 sequence (Q12306 1-98 limits assumed): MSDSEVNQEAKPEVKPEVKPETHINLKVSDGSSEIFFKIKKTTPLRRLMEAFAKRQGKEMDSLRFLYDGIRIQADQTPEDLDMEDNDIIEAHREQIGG
Experimental: (§1) A Superdex 200™ 10/30 cm SEC column (GE Healthcare Life Sciences) was used according to the manufacturer's recommended condision and run in phosphate buffered saline (PBS). Incubations of antibody with excess levels of sumoBCMA were performed at room temperature for at least 30 minutes.

[2] = target: [6xHistidine-SUMO]-huBCMA (SEQ ID NO:350) and its carboxy terminal clipped forms (Homo sapiens, UniProt Q02223); experiment: Size exclusion chromatography and LC/MS of antibody complexes with Sumo-huBCMA and clipped forms; type: binding; conditions: SEC and LC/MS; listed as 29C12
Sequence of [6xHistidine-SUMO]-huBCMA (SEQ ID NO:350) and its carboxy terminal clipped forms (Q02223 with tags, fused parts or gaps limits assumed): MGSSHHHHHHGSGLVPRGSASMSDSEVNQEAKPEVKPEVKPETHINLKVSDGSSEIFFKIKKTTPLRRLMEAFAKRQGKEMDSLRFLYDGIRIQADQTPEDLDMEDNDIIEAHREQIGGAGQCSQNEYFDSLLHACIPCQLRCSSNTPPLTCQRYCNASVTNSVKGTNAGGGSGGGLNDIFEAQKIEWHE
From the text: To determine which forms of 6×His-SUMO-huBCMA were bound to the anti-huBCMA antibodies, the SEC fractions were isolated and analyzed. Carboxy-terminus fragments of the extracellular domain of human BCMA were generated as clipped forms from the rhuBCMA fusion protein (6×His::Sumo::huBCMA(aa 5-51)::GGS::G3::Avi) of SEQ ID NO:350, as shown in FIG. 45.
A Superdex 200™ 10/30 cm SEC column (GE Healthcare Life Sciences) was used according to the manufacturer's recommendations and run in phosphate buffered saline (PBS). Incubations of antibody with excess levels of sumoBCMA were performed at room temperature for at least 30 minutes.
as §1
5 ug of total proteins were reduced in 50 mM Tris/4 M guanidine/9 mM DTT, pH 8.0 at 55° C. for 15 min, and analyzed in Agilent LCTOF system using a Vydac C8 column, 2.1 mm ID×150 mm, […] particle size. […] TOF MS conditions included capillary voltage of 4000 V, drying gas flow at 10 L/min, dry gas temperature at 300° C., nebulizer gas flow at 40 L/min, and fragmentor voltage of 300 V. MS data was analyzed in Agilent MassHunter™ Qualitative Analysis program.

TACI = target: T1, TACI; experiment: FACS binding on cells transiently transfected to express full length TACI
Experimental: (§2) An important criterion is exquisite selectivity for wild-type human BCMA expressed on the surface of cells. FACS binding on cells transiently transfected to express full length BCMA, TACI, or BAFF-R was performed using standard techniques. Approximately 40×10^6 of the transiently-transfected target cells were resuspended in a staining solution (2% goat serum, 1% rabbit serum, 0.02% azide in PBS) and aliquoted into round-bottom, 96-well plate (Corning Incorp., Acton, Mass.) as per the experiment design. The cells were incubated at 4 degrees celsius for 30 minutes to block non-specific sites. The antibodies were titrated into the staining solution. The cells were rinsed in a rinse solution (PBS+0.02% azide) by resuspending the cells in 200 ul/well. The cells were centrifuged at 1500 rpm at 4 degrees celsius for 7 minutes. The rinse solution was removed and the rinse step was repeated. The cells were resuspended in the appropriate antibody solution (see the matrix in TABLE 4) at 30 ul/well and incubated at 4 degrees celsius for 30 minutes. […] For the mouse IgG1 negative control and the two mouse antibodies (1.183 and 1.288), the secondary reagent was an anti-mouse IgG-PE conjugate (BD Pharmingen Cat. 550589). The cells/antibodies were rinsed as described above to remove excess/unbound antibody. […] Samples were read at 532 nm wavelength on FACS. […]

human BCMA = target: T2, human BCMA; experiment: FACS binding on cells transiently transfected to express full length BCMA
Experimental: as §2

Molecule | binding to Sumo [1] | binding to full-length and truncated fragments of human BCMA [2] | TACI (FACS binding) (TACI) | BCMA (FACS binding) (human BCMA)
B1 | did not bind to Sumo | bound full-length and truncated forms of BCMA |  | 
B2 |  |  | + (A sample was considered positive for binding if the MFI was two times the negative control value) | + (A sample was considered positive for binding if the MFI was two times the negative control value)

Reference: US10220090B2, “BCMA Antigen binding proteins” (Amgen Inc., priority 2012, dated 2019)
